The results in this text go back to the nanobody polyreactivity screen of Harvey et al. (2022).

This series can be described thus: yeast display, Sf9 membrane polyspecificity reagent, FACS + sequencing; frameworks hold sequencing errors. The gist of the method: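 Galactose-induced (36–48 hours) yeast carrying a synthetic nanobody display library were exposed to 10% biotinylated, detergent-solubilized Sf9 membrane reagent at 4 °C for 1 hour. FACS followed streptavidin microbead enrichment, using low and high (top ~1%) gates for expression (anti-HA) and reagent binding (streptavidin). Colony PCR, MiSeq 2 × 250 sequencing and CDR-length filtering followed. Labels for polyreactivity reflect the gate of origin.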
For the sequence “QVQLVESGGGLVQAGGSLRLSCAASGITFRFYAMGWYRQAPGKERELVAAITSSGGSTYYADSVKGRFTISRDNAKNTVYLQMNSLKPEDTAVYYCAASYGAPYGYKRYYYWGQGTQVTVSS”, the “polyreactivity (PSR sort gate)” value is “high polyreactivity”.
Next, “QVQLVESGGGLVQAGGSLRLSCAASGITFRGNVMGWYRQAPGKERELVAAISGSSGRTYYADSVKGRFTISRDNAKNTVYLQMNSLKPEDTAVYYCAAYYGTKYDYWGQGTQVTVSS”: “high polyreactivity”; “QVQLVESGGGLVQAGGSLRLSCAASGITFRGYAMGWYRQAPGKERELVAAITWSGGSTYYADSVKGRFTISRDIAKNTVYLQMKSLKPEDTAVYYCAARGRRSFEYWGQGTHVTVSS”: “high polyreactivity”.
In the case of “QVQLVESGGGLVQAGGSLRLSCAASGITFRHYDMGWYRQAPGKERELVAAITSRGGSTYYADSVKGRFTISRDNAKNTVYLQMNSLKPQDTAVYYCNKRLYYQRWPAAAREYWGQGTQVTVSS”, the “polyreactivity (PSR sort gate)” value is “high polyreactivity”.
The value for “QVQLVESGGGLVQAGGSLRLSCAASGITFRKYAMGWYRQAPGKERELVAGIRRGGSTYYADSVKGRFTISRDNAKNTVYLQMNSLKPEDTAVYYCATRARYKRIRYDYWGQGTQVTVSS” was “high polyreactivity”; that for “QVQLVESGGGLVQAGGSLRLSCAASGITFRNYAMGWYRPAPGKERELVADITTGGSTYADSVKGRFTISRDNAKNTVYLQMISLKPEDTAVYYCAARYFSYYILRRIYPVREDYWGQGTQVTVSS” was “low polyreactivity”; that for “QVQLVESGGGLVQAGGSLRLSCAASGITFRPYTMGWYRQAPGKERELVATINWSGGSTYYADSVKGRFTISRDNAKNTVYLQMNSLKPEDTAVYYCAVTWYVRRWYGYWGQGTQVTVSS” was “high polyreactivity”.
The value for “QVQLVESGGGLVQAGGSLRLSCAASGITFRRNAMGWYRQAPGKERELVAGITRGGTTKYADSVKGRFTISRDNAKNTVYLQMNSLKPEDTAVYYCNAVTRRHKYYYWGQGTQVTVSS” was “high polyreactivity”; that for “QVQLVESGGGLVQAGGSLRLSCAASGITFRSYAMGWYRQAPGKERELVATISWSGGITYYADSVKGRFTISRDNAKNTVYLQMNSLKPEDTAVYYCAKASQSWGRDDYYYWGQGTQVTVSS” was “low polyreactivity”.
The value for “QVQLVESGGGLVQAGGSLRLSCAASGITFRTNTMGWSRQAPGKERELVAAITWDGGSTYYADSVKGRFTISRDNAKNTVYLQMNSLKPEDTAVYYCAARLSYLYGLYPYYYWGQGTQVTVSS” was “high polyreactivity”; that for “QVQLVESGGGLVQAGGSLRLSCAASGITFRTYAMGWYRQAPGKERELVAAISSRGGSTYYADSVKGRFTISRDNAKNTVYLQMNSLKPEDTAVYYCNARDVRYYEYGYWGQGTQVTVSS” was “high polyreactivity”.
For “QVQLVESGGGLVQAGGSLRLSCAASGITFRYNAMGWYRQAPGKERELVAAITFSGGSTYYADSVKGRFTISRDNAKNTVDLQMNSLKPEDTAVYYCAKLGSTSSRGNYDYWGQGTQVTVSS”, the “polyreactivity (PSR sort gate)” value is reported as “low polyreactivity”.
Next, “QVQLVESGGGLVQAGGSLRLSCAASGITFRYYAMGRYRQAPGKERELVAAITRSGSTTYADSVKGRFTISRDNAKNTVYLQMNSLKPVDTAVYYCAVDYYYLTGGVDYWGQGTQVTVSS”: “low polyreactivity”; “QVQLVESGGGLVQAGGSLRLSCAASGITFRYYAMGWSRQAPGKERELVADITRSGGTTYYADSVKGRFTISRDNAKNTVYLQMNSLKPEDSAVYYCAVDLNWWGWGLLQYDYWGQGTQVTVSS”: “high polyreactivity”.
Next, “QVQLVESGGGLVQAGGSLRLSCAASGITFRYYAMGWYRPAPRKERELVAVISTSGGSTYYADSVKGRFTISRDNAKNTVYLQMNSLKPEDTAVYYCAARYSRSRRYRMDYWGQGTQVTVSS”: “high polyreactivity”.
“QVQLVESGGGLVQAGGSLRLSCAASGITFRYYAMGWYRQAPGKERELVAAISSGGGTYYADSVKGRFTISRDNAKNTVYLQMNSLKPEDTAVYYCNVLRLYPSMDYWGQGTQVTVSS”: the “polyreactivity (PSR sort gate)” value is “high polyreactivity”.
Next, “QVQLVESGGGLVQAGGSLRLSCAASGITFSFYAMGWYRQAPGKERELVAGITRSGGDTYYADSVKGRFTISRDNAKNTVYLQMNSLKPEDTAVYYCAAAWFFYRRQYTFFAGRMDYWGQGTQVTVSS”: “high polyreactivity”; “QVQLVESGGGLVQAGGSLRLSCAASGITFSGNAMGWYRQAPGKERELVAAISRNGGRTYYADSVKGRFTISRDNAKNTVYLQMNSLKPEDTAVYYCAKDAYGYSRVSAWYYTYDYWGQGTQVTVSS”: “high polyreactivity”; “QVQLVESGGGLVQAGGSLRLSCAASGITFSGNAMGWYRQAPGKERELVATISQSGGSTYYADSVKGRFTISRDNAKNTVYLQMNSLKPEDTAVYYCNVNLQGRYSDKYDYWGQGTQVTVSS”: “high polyreactivity”.
The value for “QVQLVESGGGLVQAGGSLRLSCAASGITFSGYAMGWYRQAPGKERDFVAGISYSGGSTYYADSVKGRFTISRDNAKNTVYLQMNSLKPEDTAVYYCAAYFGHYWRYYYWGQGTQVTVSS” was “high polyreactivity”; that for “QVQLVESGGGLVQAGGSLRLSCAASGITFSKYAMGWYRQAPGKERELVAAITRSGGSTYYADSVKGRFTISRDNAKNTVYLQMNSLKPEDTAVYYCNARGYVTGGDGGYGYWGQGTQVTVSS” was “high polyreactivity”.
As to “QVQLVESGGGLVQAGGSLRLSCAASGITFSLYAMGWYRQAPGKERELVAAITRSGGSTYYADSVKGRFTISRDNAKNTVYLQMNSLKPEDTAVYYCAAKRPGVRRYYYWGQGTQVTVSS”, the “polyreactivity (PSR sort gate)” value is listed as “high polyreactivity”.
For the sequence “QVQLVESGGGLVQAGGSLRLSCAASGITFSLYAMGWYRQAPGKERELVAAITRSGGSTYYADSVKGRFTISRDNAKNTVYLQMNSLKPEDTAVYYCAAQRPGVRRYYYWGQGTQVTVSS”, the “polyreactivity (PSR sort gate)” value is “high polyreactivity”.
The value for “QVQLVESGGGLVQAGGSLRLSCAASGITFSNYAMGWYRQAPGKERELVAAITLSGGRTYYADSVKGRFTISRDNAKNTVYLQMNSLKPEDTAVYYCAAGRTRRPLGGTTKYYYWGQGTQVTVSS” was “high polyreactivity”; that for “QVQLVESGGGLVQAGGSLRLSCAASGITFSPYTMGWYRQAPGKERELVAAINDGAITYYADSVKGRFTISRDNAKNTVYLQMNSLKPEDTAVFYCAAAAWGTDPFSTDYATYDYWGQVTQVTVSS” was “low polyreactivity”; that for “QVQLVESGGGLVQAGGSLRLSCAASGITFSQYAMGWYTQAPGKERELVASISEGDGTNYADSVKGRFTISRDNAKNTVYLQMNSLKPEDTAVYYCAAPRPYYWSRRYYRAFDYWGQGTQVTVSS” was “high polyreactivity”.
Consider “QVQLVESGGGLVQAGGSLRLSCAASGITFSRYAMGWYRQAPGKERELVAAITWDGGRTYYADSVKGRFTISRDNAKNTVYLQMNSLKPEDTAVYYCAAGSAWWYYWGQGTQVTVSS”, for which the “polyreactivity (PSR sort gate)” value is reported as “high polyreactivity”.
As to “QVQLVESGGGLVQAGGSLRLSCAASGITFSSYAMGWYRQAPGKEMELVAAISYGGGNTYYADSVKGRFTISRDNAKNTVYLQMNSLKPEDTSVYYCNTLYTSYSGLDYWGQGTQVTVSS”, the “polyreactivity (PSR sort gate)” value is listed as “high polyreactivity”.
The value for “QVQLVESGGGLVQAGGSLRLSCAASGITFSVNTMGWYRQAPGKERELVAAITSAGGTYYADSVKGRFTISRDNAKNTVYLQMNSQKPEDTAVYYCAAANFRSYLSQTGPRAYYYWGQGTQVTVSS” was “low polyreactivity”.
As to “QVQLVESGGGLVQAGGSLRLSCAASGITFSYAMGWYRQAPGKERELVAGITTSGGSTYADSVKGRFTISRDNAKNTVYLQMNSLKPEDTAVYYCAADRSAVQFSAFLEYDYWGQGTQVTVSS”, the “polyreactivity (PSR sort gate)” value was “low polyreactivity”.
Next, “QVQLVESGGGLVQAGGSLRLSCAASGITFSYNAMGWSRQAPGKERELVAAIRVGDGSTYYADSVKGRFTISRDNAKNTVYLQMNSLKPEDTAVYYCNARYLRLRYPYTDEYNYWGQGTQVTVSS”: “low polyreactivity”.
Consider “QVQLVESGGGLVQAGGSLRLSCAASGITFSYNAMGWYRQAPGKERELVAAISDIGGSTYYADSVKGRFTISRDNAKNTVYLQMNSLKPEDTAVYYCAADEYYQDESDYWGQGTQVTVSS”, for which the “polyreactivity (PSR sort gate)” value was “low polyreactivity”.
The value for “QVQLVESGGGLVQAGGSLRLSCAASGITFTENVMGWYRQAPGKERELVAGISRSGGITYYADSVKGRFTISRDNAKNTVYLQMNSLKPEDTAVYYCAAEEAYRSRRGGFDYWGQGTQVTVSS” was “high polyreactivity”; that for “QVQLVESGGGLVQAGGSLRLSCAASGITFTFNAMGWYRQAPGKERELVAAITWSGGSTFYADSVKGRFTITRDNAKNTVYLQMNSLKPEDTAVYYCARDTELYVRWLDYWGQGTQVTVSS” was “low polyreactivity”.
In the case of “QVQLVESGGGLVQAGGSLRLSCAASGITFTGYAMGWYRQAPGKERELVAAITSGGGRTYYADSVKGRFTISRDNAKNTVYLQMNSLKPEDTAVYYCATRYVTIVGYDYWGQGTQVTVSS”, the “polyreactivity (PSR sort gate)” value is given as “high polyreactivity”.
Next, “QVQLVESGGGLVQAGGSLRLSCAASGITFTIYAMGCNRQAPGKERELVAAITWTSDITHYADSVKGRVTISRDNAKNTDYLQMNSLKPEDTAVYYCGATTWDEYDYWGQGTQVTVSW”: “high polyreactivity”.
Next, “QVQLVESGGGLVQAGGSLRLSCAASGITFTRNVMGWYRQAPGKERELVAAISGSGGSTYYADSVKGRFTISRDNAKNTFYLQMNSLKPEDTAVYYCAARSRGGRRYDYWGQGTQVTVSS”: “high polyreactivity”; “QVQLVESGGGLVQAGGSLRLSCAASGITFTSYAMGWYRQAPGKERELVAAISSSGVRTYYADSVKGRFTISRDNAKNTVYLQMNSLKPEDTAVYYCATRRRVLYGYDYWGQGTQVTVSS”: “high polyreactivity”.
For “QVQLVESGGGLVQAGGSLRLSCAASGITFTSYAMGWYRQATGKERELVAAITSSGSSTYYADSVKGRFTISRDNAKNTVYLQMNSLKPEDTAVYYCAAKHVGWYVQEEDYWGQGTQVTVSS”, the “polyreactivity (PSR sort gate)” value is on record as “low polyreactivity”.
Regarding “QVQLVESGGGLVQAGGSLRLSCAASGITFTSYVMGWYRQAPGKERELVAAIRWSGGRTYYADSVKGRFTISRDNAKNTVYLQLNSLKPEDTAVYYCNRVTRSHVDYWGQGTQVTVSS”, the “polyreactivity (PSR sort gate)” value is reported as “high polyreactivity”.
Next, “QVQLVESGGGLVQAGGSLRLSCAASGITFTVNAMGWYRQSPGKERELVAAISWSGGSTYYADSVKGRFTISRDNAKNTVYLQMNSLKPEDTAVYYCNAVLYRFAYNYWGQGTQVTVSS”: “low polyreactivity”.
